The values that follow come from article PMC10322906.

For this assay, the target named is CXCR4-Tango. Kind of assay: Tango (TEV-cleavage luciferase reporter of arrestin recruitment); Tango-Trio, basal: HTTL-B1 / HTTL-B2 cells transfected with GPCR-Tango constructs, with against without cumate (30 µg/mL) or cumate dose-response, no agonist; in Fig. 7 also with inverse agonists/antagonists at EC80.

Take “β-arrestin2-TEV219 (from UniProt P32121 1-409) (natural protein)”: the fold change in constitutive β-arrestin-2 recruitment (with against without cumate) amounted to 67 fold.
